Data set [1] addresses T1, human F-box-containing DNA helicase FBH1, FLAG-tagged and biotinylated, non-ubiquitylated (human), Q8NFZ0.
T1 chain: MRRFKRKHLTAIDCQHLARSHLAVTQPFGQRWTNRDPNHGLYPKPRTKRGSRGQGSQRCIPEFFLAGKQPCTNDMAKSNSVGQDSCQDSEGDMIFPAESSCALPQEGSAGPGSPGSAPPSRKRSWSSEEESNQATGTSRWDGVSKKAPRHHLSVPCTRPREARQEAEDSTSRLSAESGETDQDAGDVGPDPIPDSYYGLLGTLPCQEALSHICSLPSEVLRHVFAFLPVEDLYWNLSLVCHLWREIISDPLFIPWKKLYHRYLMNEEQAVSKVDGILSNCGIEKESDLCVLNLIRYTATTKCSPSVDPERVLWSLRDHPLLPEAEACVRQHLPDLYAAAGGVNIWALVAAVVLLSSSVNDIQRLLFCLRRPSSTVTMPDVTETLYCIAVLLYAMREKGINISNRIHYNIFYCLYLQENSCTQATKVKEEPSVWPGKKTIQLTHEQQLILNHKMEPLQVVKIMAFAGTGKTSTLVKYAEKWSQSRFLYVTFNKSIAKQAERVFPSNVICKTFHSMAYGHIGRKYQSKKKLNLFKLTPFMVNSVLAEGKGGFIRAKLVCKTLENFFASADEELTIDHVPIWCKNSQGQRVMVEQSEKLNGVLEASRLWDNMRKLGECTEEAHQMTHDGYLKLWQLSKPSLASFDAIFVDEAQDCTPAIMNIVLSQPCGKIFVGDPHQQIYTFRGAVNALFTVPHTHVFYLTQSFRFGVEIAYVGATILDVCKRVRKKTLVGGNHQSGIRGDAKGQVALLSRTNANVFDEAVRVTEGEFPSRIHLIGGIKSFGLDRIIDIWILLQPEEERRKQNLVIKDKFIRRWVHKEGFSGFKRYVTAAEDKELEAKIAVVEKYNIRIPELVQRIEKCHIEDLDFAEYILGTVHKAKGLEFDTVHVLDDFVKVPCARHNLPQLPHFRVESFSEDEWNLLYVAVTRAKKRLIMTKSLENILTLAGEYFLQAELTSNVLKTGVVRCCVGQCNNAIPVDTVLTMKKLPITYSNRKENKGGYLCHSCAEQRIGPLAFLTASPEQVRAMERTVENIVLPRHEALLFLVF
The experiment in a line: single-molecule TIRFM. Particulars: remark: other sources report otherwise.

The target of another data set is RAD51 (UniProt Q06609 1-339). The experiment in a line: single-molecule FRET.

The record followed here is article PMC3616717.

B1: human RAD51 protein, Q06609 1-339 (natural protein)
chain: MAMQMQLEANADTSVEEESFGPQPISRLEQCGINANDVKKLEEAGFHTVEAVAYAPKKELINIKGISEAKADKILAEAAKLVPMGFTTATEFHQRRSEIIQITTGSKELDKLLQGGIETGSITEMFGEFRTGKTQICHTLAVTCQLPIDRGGGEGKAMYIDTEGTFRPERLLAVAERYGLSGSDVLDNVAYARAFNTDHQTQLLYQASAMMVESRYALLIVDSATALYRTDYSGRGELSARQMHLARFLRMLLRLADEFGVAVVITNQVVAQVDGAAMFAADPKKPIGGNIIAHASTTRLYLRKGRGETRICKIYDSPCLPEAEAMFAINADGVGDAKD
modifications: here or on the partner: biotin on the underlined lysine of the BAP sequence (…)
Regarding B1, the kon (usually the second-order rate constant of association) in data set [1] came to 2.7e+07 M⁻¹ s⁻¹.

B2: Cy3/Cy5-labeled poly(dT)60 (oligo g) (ssDNA)
DNA: TTTTTTTTTTTTTTTTTTTTTTTTTTTTTTTTTTTTTTTTTTTTTTTTTTTTTTTTTTTT
For B2, the binding result in the data set with RAD51 is “binds”.
